Results taken from a protein production outcome set (Wang et al. 2014).

Experiment: label from the status in PepcDB records

Row | Sequence | protein production
1 | MTRRGGRLRTVLTVLTAWSALAGAALAGAAPAGGAPRSVPLAPGVEYTQFDIPADRGVTHAHLLSVDLADPRVRVGLLHPGAVAARAPVSRLADSQGALAGINGDFFNITETQHPGVEATGSTDGPAIADGHTLKAAVPNGQRFGPALPPGTTTEDVLGVGDDRRARLDRLALEGSVDTAAGELPLRGLNQYALPEGSVGAYTADWGSVSRARAVCGTDTDRAAPCSTDTYEVTVRDGQVVSFADSPGSGPIAAGTTVLVGREAGAQQLRKLSTGEEVSVEHRLVAAGSQVAYSFAIGGYPVLRQGKPLPGLDTVTSAVRTAVGIKDAGRRLLLLAIDGAAAYRSGLTIAEVASVMRGLGATEAFSLDGGGSTTLVARAPGATSVTVRNHPSGGAERPVPNGIGVFTRT | failed
2 | MSLRVYVTGNITVDETWSIPDIPKKGASIHGVKVSQDIGGKGANQAIILSRCGIETRLIAATGNDSNGAWIRQQIKNEPLMLLPDGHFNQHSDTSIILNSADGDNAIITTTAAADTFSLDEMIPHMADAVAGDILLQQGNFSLDKTRALFQYARSRGMTTVFNPSPVNPDFCHLWPLIDIAVVNESEAELLQPYGVKTLVITQGAAGAWLVQEGQRQFCPAVPAEALDTTGAGDTFLAVMLASALLRGVAPDALALAHASRAAAITVSRRGTLSAFPGSRELAALLTTDGAEGHHHHHH | not failed
3 | MSLPANKLVFVGGMGAGKTTAVRSISDVEPVSTEMPLSQDAYGDKTYTTVALDYSSIELEDGELLHVYGVPGQKYLDFMWPLVCDGALGVIVLTNARDPQMLTATLELLREFSQIAPEASLAVGITMTDEVEDFLVPPFREALVAEGFRVPVMRVDARSATQITFLVKSLLSYRYTSATSLEHHHHHH | not failed
4 | MRFVVAFFWTFLLTQMACYIVGAMNGAGYDLQTSVIMGFIITAAVIVLGEIMPVKQDASQH | failed
5 | MVLKRKGLLIILDGLGDRPIKELNGLTPLEYANTPNMDKLAEIGILGQQDPIKPGQPAGSDTAHLSIFGYDPYETYRGRGFFEALGVGLDLSKDDLAFRVNFATLENGIITDRRAGRISTEEAHELARAIQEEVDIGVDFIFKGATGHRAVLVLKGMSRGYKVGDNDPHEAGKPPLKFSYEDEDSKKVAEILEEFVKKAQEVLEKHPINERRRKEGKPIANYLLIRGAGTYPNIPMKFTEQWKVKAAGVIAVALVKGVARAVGFDVYTPEGATGEYNTNEMAKAKKAVELLKDYDFVFLHFKPTDAAGHDNKPKLKAELIERADRMIGYILDHVDLEEVVIAITGDHSTPCEVMNHSGDPVPLLIAGGGVRTDDTKRFGEREAMKGGLGRIRGHDIVPIMMDLMNRSEKFGA | not failed
6 | MKLQVLPLSQEAFSAYGDVIETQQRDFFHINNGLVERYHDLALVEILEQDRTLISINRAQPANLPLTIHELERHPLGTQAFIPMKGEVFVVVVALGDDKPDLSTLRAFITNGEQGVNYHRNVWHHPLFAWQRVTDFLTIDRGGSDNCDVESIPEQELCFA | not failed
7 | MSKLSLKIGTYFLILALCIETIAFVSFYKSLSKMRIVEETDALLEKGNRYSKKIKSRERRDEYYKEMKHAEHNKNPKRPVYPEFDITNEAAHLVESESISNSDIAIIITDHNGKIISTSEPVTKDMQKQLTCKTETVPDGGLVVERNWKKSKFITTVSPLNTTKFQGKLYMLLKTSFLENMLLKLMNQFLIISVLTIILTTISVFVFSRVITEPLVKMKRATEKMSKLNKPIQLGIKRNDELGSLAKTIEDLSSELTYMKKERNEFLASVAHELLTPLTYMKGYAKVAKRDSLTKEEREEYLQIIEDETDSVTDLVQDLFMLVQLEQHQFVIKKQKVLLQPFLERMVEKTKTTLTNKQMQLHVYCKDDLEVCIDERRMEQVMLNLLHNAYQHSPENTAITIRVLMETDSFTISVQDEGEGIPEEDIPHIFDRFYRVDKSRTRATGGKGIGLAVAKEIVELHNGSILVTSQLGAGTNFIIELPFE | failed
8 | MITLQKAEASDLEKIIAIQRASFKAVYEKYHDQYDPYVEEVEQIRWKLVERPDCFYHFVLVDETIVGFLRLVIKDEEKRAWLGTAAILPQYQGQGYGSAAMALLEKTYPKLTKWDLCTIAQEKLMVSFYEKCGYHSTHTEPEQEGMDMVYMTKKIE | failed
9 | MWFQNYLLAKFMMNRKGLMANYRVWRRRWFYPLISVVVAVSLCLGTPLVGRAIDLRPLLLQGVQVLQLSNISDRQEVDLGNQMNQQLRSSEVKISRNAEITRYVDQIGQRLVANSDRPNLPFTFQVVENDAVNAFATLGGFVYIHTGLLKTADNEAELASVIAHEIGHIGGRHLVKQMRQRALASGLASATGLDRNTAVGLGVELALNRPRSRQDEFDADTRGLRTLTRAGYAPSAMVSFMQKLTKGGGSVPAFLSTHPATGDRITSLRRAINSQGSNGRDGLDNAAYRARIRSIL | failed
10 | MLAEAGTGTGVAAAASHDAPPKAVPRQLPAPPRITAFLSAFATPPPHCLRLNKSLNGLHNPVTLHVVCQYMLLRSVHGGRERYLNAHVSQGSWPVLVLNADFRPLSYYPLSLWSWQDAIKAVFLDRVNIVAHYDQAVRSPTLEMQLPSVVSLKSFVKPTTHPAFTRFNVFLRDRFACQYCGSPEDLTFDHIIPRSKGGQTTWENVVAACSPCNLRKGNLTPAQAKMFPRQSAFAPTVHQLHRNGRMFPPNYLHDSWLDYLYWDTELDP | failed
11 | MISNALKQGNLSPELEEKLVCMQKQQENANSTNEWETCSRGSVNEEALTPSRQTDDTEWKIRTSLRRPNAMTTSSQFNRILKKNRSKNDEVAELGEQKQSQLERHKELLKKNILRKRSLLERNLQSEIHEDVKTKVQRHVRPLSNASPDEQSENERSGEPNLDFKR | failed
12 | MSLELGQAMVTVAGIGCRKGAASDAIIAAVRAAERAFGVTVDYLATAPLKADEAGLAEAAKGLSLSLEIVAQERLEAVAAETMTFSQASLDHSGSPSVSEAAALAAAGAGARLVAPRLVVGDVTVAIAMTSDAPHGSRSAIEYGEQEEGHHHHHH | not failed
13 | MTHVRIVMVNTTLPANIGSALRAMKTMGLSQLVLVAPKTYPHPDIDALAAGAQDLVEKIKIVDTLEQAIQDCHIVFGTSARSRTIPWPLLDARPAAELSMDAVITRQQEIAIVFGREDRGLTNEELALANYHLTIPVNTDYGVLNVAQAIQVICYEMRMATLAQVQNDQASSDSQKMQVTEKIEMDWDEPLVNHQQMEEFYPHLEKMLVDIEFLDPQNPRLLPLRLRRLFGRAQLDRMEYHLLRGIFSRVQALSHGKWKKTALDKEEQSDV | failed
14 | MKPLKEYLLIPTQMRVFETQTQAIETSLSVNAQTSESSEAFTVKKDPHEIKVTGKKSGESELVYDLAGFPIKKTKVHVLPDLKVIPGGQSIGVKLHSVGVLVGFHQINTSEGKKSPGETAGIEAGDIIIEMNGQKIEKMNDVAPFIQKAGKTGESLDLLIKRDKQKIKTKLIPEKDEGEGKYRIGLYIRDSAAGIGTMTFYEPKTKKYGALGHVISDMDTKKPIVVENGEIVKSTVTSIEKGTGGNPGEKLARFSSERKTIGDINRNSPFGIFGTLHQPIQNNISDQALPVAFSTEVKKGPAEILTVIDDDKVEKFDIEIVSTTPQKFPATKGMVLKITDPRLLKETGGIVQGMSGSPIIQNGKVIGAVTHVFVNDPTSGYGVHIEWMLSEAGIDIYGKEKASLEHHHHHH | not failed
15 | MRLTVWTYEGPPQVGAMRVATAMRGVHYVVHAPQGDSYADLLFTMIERRPGRPAVSYTSFQARDLGTDTAALFKTAAADAVARFQPEALLVGSSCTGELIQDDPGGLAKALGLSIPVIPLELPSYQRKENWGAAETFYRLVRTMAGPAAPAPGTPRAPRPAGQRPRCNLLGPTALGFRHRDDVQAVVALLGRMGVDVAVVAPLGASPADLARLGEADFNVVLYPEIADTAVRWLERAFGQPSVRTVPIGVGATRAFIAEVAAVAGVDPAPALAEESLRLPWWSRSVDSTYLTGKRVFIFGDATHAVAAARVATEEFGFEVVGLGTYAREYARELRACAGALGLEALITDDYLDVEAAIADAHPDLVLGTQMERHIAKRLGVPCAVISAPVHVQDFPARTAPQMGFDGANVLFDTWVHPLMMGLEEHLLMMFRDDFEFHGDAAPSHLSAHRPTGEAVGDAVGEPPAAPRDQAAPAATLDGSAAQSDPARTTPPGAPSWEDSAEKELRKVPFFVRGKARRNTERFAAERGLASISVETLYDAKAHFGR | failed
16 | MENLTNDVITILQYLLPGFVSAWVFYSLTSYPKPSQFERVVQALIFTIFIQAIVVVVEFSVRWLCATYEITGVPDKFGLVGSVVTAILLGVAFAGFANNDLLHKCLRRCLITRETSYLRNGLVPFYRTLLLLSYT | failed
17 | MTFFIFLLACSAAAATGIIFKPGAWYESLQKPAFTPPNWAFPVAWTTIYLLLAWAGYRLTLLPGSQTVLALWAAQIALNTLWTPVFFGANRIAAAMVILALLWIVVATMIVMALQLDIITGLILFPYLVWLSVAAALNFSILRHNR | failed
18 | MYLSLLKSLNRLSPRAWDFVQLTRIDKPIGIYLLLWPTLWAVWIAGKGSPSLNTVFIFVAGVFLMRAAGCVINDFADRKVDGHVKRTEQRPLVSGKVSSREALVLFAVLVSLSFVLVLFTNSTTIWLSFGGLALAACYPFMKRYTYYPQVVLGAAFSWGMPMAFTAETGELPAAAWLLYIANLLWTVGYDTYYAMVDRDDDLKIGVKSTAVLFGDADRVIILSLQGLALGCLALAGSRFELGAFFYMGLLVAAACFAWEFWSTRLRERDACFKAFLHNHWAGLAIFLGIVADYALR | failed
19 | MAIQFIVSNKYTAEVSKQLNDSQNWVLDSGIYYEDHNNHIVSSPINSATKPQNTREEWLWIPPHCQVVVCSTSSLKSFLGCKASEDLDRVFGDHPLWLDQLRPLSNLLENSLIDLLSRAPFEQSSKRNIQSMERGNPVMNWNVMQVEEEDTRGEQRVAASSSLSSSFDWNTFLRDRCGLSEEDVAYCFRKLSRFGRVSLSRLNEDSLLRMGINDPTVIAKLLIGITEEFS | failed
20 | WKTGGRFLTLGVTLIMFIIVSNFLGLPFMYSATEAGEHIAWWRSPTSDPAVTLTLAVMVVTLTHYYGIKMKGTKEYVKGYFQPMKFLFPLKVIEEFANTLTLGLRLFGNIYAGEILLGLLAKLGGASFLGALGALVPMLAWMGFSVFVGSIQAFIFVMLTMVYMAHKVSHDH | failed
21 | PLSFSLLPATRDDIAMIVDRKRAQIARTHQYDVFACGWTVTLLERLVDASAEDFGLRTATLRAGGRVVAAELGLLSEGRYHLWLPIYDPEFARYSPGALMTLDTLEALAGLGVSRVDFGVDAD | failed
22 | MESVKTGKTNKVGKNTEMANTKANKETHFKQVSAITNIIRSVGGFFTKIAKRVRGLVKKHPKKSSAALVVLTHIACKKAKELDDKVQDKSKQAEKENQINWWKYSGLTIAASLLLAACSAGDTDKQIELEQEKKEAENARDRANKSGIELEQERQKTNKSGIELANSQIKAEQERQKTEQEKQKANKSAIELEQQKQKTINTQRDLIKEQKDFIKETEQNCQENHNQFFIKKLGIKGGIAIEVEAECKTPKPAKTNQTPIQPKHLPNSKQPHSQRGSKAQEFIAYLQKELEFLPYSQKAIAKQVNFYKPSSIAYLELDPRDFKVTEEWQKENLKIRSKAQAKMLEMRDLKPDPQAHLPTSQSLLFVQKIFADVNKEIEAVANTEKKAEKAGYGYSKRM | failed
23 | MAQSETVERILDAAEQLFAEKGFAETSLRLITSKAGVNLAAVNYHFGSKKALIQAVFSRFLGPFCASLEKELDRRQAKPEAQHATLEDLLHLLVSQAMAVKPRSGNDLSIFMRLLGLAFSQSQGHLRKYLEEVYGKVFRRYMLLVNEAAPKLPPIELFWRVHFMLGAAAFSMSGIKALRAMAETDFGVNTSTEQVMHLMVPFFAAGMRAESGIDDPLLAGAQLRPRNKTPAKA | not failed
24 | MAFNGAMSVGAQISDAVILAHSPKSCTHIMYQTISSAGRRTLFERGALLPVSLAPNLESTDMGEAEMIFGGMEKLEEKILELKARQPRAIVVVSACPAGIIGDDIGRTRRFSEPGLPVVTLKTDGNLAGDYLQGMLMAYTSLARQVIRLEHHHHHH | failed
25 | MASIVMLLRALMSCRLTPKDEPETSDSSSSAAKLYRNIVGDENVTRKRISVVDTSHLGDNHEFIIETTCGSNDMDEGFYWIIVRNHLM | failed
